Measured values as given in US20130344077A1 (VET THERAPEUTICS, published 2013).
Positions count from the first letter of the chain named. Each block holds one binder with its values, some of them ahead of it.

How the values were obtained:
[1] = biological target: target antigen of mab 231 on canine lymphoma cells (canine); assay: FACS on canine lymphoma cells positive for the mab 231 antigen, FITC anti-dog IgG secondary
[2] = biological target: T1, human CD52 on human T-cell lymphoma HUT-78 cells (human, UniProt P31358 25-36); assay: FACS on HUT-78 cells, about 2 ug primary antibody, FITC goat anti-dog IgG secondary
T1 construct: whole, on cells; also called CAMPATH-1 antigen; CD52 positive lymphoma cells
T1 chain (looked up): GQNDTSQTSSPS
Protocol: The binding of the antibody variants of the present invention was assessed using a fluorescence-activated cell sorter (FACS). In the present example, the antibody variants were incubated with the CD52 positive cells and the amount of bound antibody was assessed following incubation with a fluorescent-labeled reporter reagent. The reporter was thereafter measured by FACS.
Briefly, for each assay, one million cells of the human T-cell lymphoma HUT-78 cells were resuspended in FACS buffer (PBS+2% FBS). About 2 ug of the primary antibody were added to the cells and the samples were incubated at 4° C. for 1 hour. The primary antibody was provided as supernatants from transfected cells with recombinant antibody constructs or from purified antibody preparation. The rat anti-human CD52 mAb (Serotec) was added to the cells as a control. One ml of FACS buffer was added and cells were spin down for 3 min at 800×g in Eppendorf microcentrifuge. The cells were washed with 1 ml FACS buffer and spin down again. The secondary antibodies such as fluorescein-isothiocynate (FITC) conjugated goat anti-rat (Jackson ImmunoResearch), or the FITC-conjugated goat anti-dog IgG (H+L) (Bethyl Laboratories) were added in 100 μl of FACS buffer supplemented with 1% BSA to appropriate tubes and the tubes were incubated at 4° C. for 30 minutes. The wash steps were repeated. The cells were then resuspended in 500 μl FACS buffer and transferred into 12×75 mm polystyrene test tubes. The cells were analyzed by FACS with a FacScan cytometer using the CellQuest software (Becton-Dickenson). Several controls were utilized to determine the background fluorescence: (i) one tube of cells was incubated with the FITC-conjugated secondary antibody without the primary antibody, (ii) one tube of cells was incubated with PBS only, and (iii) one tube was incubated with the primary antibody without the FITC-conjugated secondary antibody.

[3] = biological target: target antigen of mab 231 on canine lymphoma cells (canine); assay: FACS on canine lymphoma cells positive for the mab 231 antigen, anti-mouse IgG secondary

- Binding (%) [1]: 27.2%
B3: VET118 VET218 anti-canine lymphoma antibody variant (mab 231 variable domains with canine FR4) (antibody)
light: DIQMNQSPSSLSASLGDTITITCHASQNINVWLSWYQQKPGNIPKLLIYKASNLHTGVPSRFSGSGSGTGFTLTISSLQPEDIATYYCQQGQSYPLTFGGGTHLTVLGQPKASPSVTLFPPSSEELGANKATLVCLISDFYPSGVTVAWKADGSPITQGVETTKPSKQSNNKYAASSYLSLTPDKWKSHSSFSCLVTHEGSTVEKKVAPAECS
heavy: EVKLVESGGGLVQPGGSLKLSCATSGFTFSDYYMYWVRQTPEKRLEWVAYISNGGGSTYYPDTVKGRFTISRDNAKNTLYLQMSRLKSEDTAMYYCARHGGYYAMDYWGQGTSVTVSSASTTAPSVFPLAPSCGSTSGSTVALACLVSGYFPEPVTVSWNSGSLTSGVHTFPSVLQSSGLYSLSSMVTVPSSRWPSETFTCNVAHPASKTKVDKPVPKRENGRVPRPPDCPKCPAPEMLGGPSVFIFPPKPKDTLLIARTPEVTCVVVDLDPEDPEVQISWFVDGKQMQTAKTQPREEQFNGTYRVVSVLPIGHQDWLKGKQFTCKVNNKALPSPIERTISKARGQAHQPSVYVLPPSREELSKNTVSLTCLIKDFFPPDIDVEWQSNGQQEPESKYRTTPPQLDEDGSYFLYSKLSVDKSRWQRGDTFICAVMHEALHNHYTQKSLSHSPGK

- Binding (%) [2]: 51.4%
B6: VET111 VET222 chimeric antibody (rat anti-human CD52 variable domains on canine constant domains) (antibody)
light: DIKMTQSPSFLSASVGDRVTLNCKASQNIDKYLNWYQQKLGESPKLLIYNTNNLQTGIPSRFSGSGSGTDFTLTISSLQPEDVATYFCLQHISRPRTFGTGTKLELKGQPKASPSVTLFPPSSEELGANKATLVCLISDFYPSGVTVAWKADGSPITQGVETTKPSKQSNNKYAASSYLSLTPDKWKSHSSFSCLVTHEGSTVEKKVAPAECS
heavy: EVKLLESGGGLVQPGGSMRLSCAGSGFTFTDFYMNWIRQPAGKAPEWLGFIRDKAKGYTTEYNPSVKGRFTISRDNTQNMLYLQMNTLRAEDTATYYCAREGHTAAPFDYWGQGVMVTVSSASTTAPSVFPLAPSCGSTSGSTVALACLVSGYFPEPVTVSWNSGSLTSGVHTFPSVLQSSGLYSLSSMVTVPSSRWPSETFTCNVAHPASKTKVDKPVPKRENGRVPRPPDCPKCPAPEMLGGPSVFIFPPKPKDTLLIARTPEVTCVVVDLDPEDPEVQISWFVDGKQMQTAKTQPREEQFNGTYRVVSVLPIGHQDWLKGKQFTCKVNNKALPSPIERTISKARGQAHQPSVYVLPPSREELSKNTVSLTCLIKDFFPPDIDVEWQSNGQQEPESKYRTTPPQLDEDGSYFLYSKLSVDKSRWQRGDTFICAVMHEALHNHYTQKSLSHSPGK
notes: Expressed in 293F cells and used as supernatant or protein A purified

- Binding (%) [2]: 30.6%
B7: VET112 VET224 antibody variant (anti-CD52) (antibody)
light: QSVLTQPASVSGSLGQRVTISCKASQNIDKYLNWYQQKLGESPKLLIYNTNNLQTGIPSRFSGSGSGTDFTLTISSLQPEDVATYFCLQHISRPRTFGGGTHLTVGQPKASPSVTLFPPSSEELGANKATLVCLISDFYPSGVTVAWKADGSPITQGVETTKPSKQSNNKYAASSYLSLTPDKWKSHSSFSCLVTHEGSTVEKKVAPAECS
heavy: B6 heavy with V115T, M116L
notes: Constant domains are added as separate pieces because the printed entries are variable domains only

- Binding (%) [2]: 40.1%
B8: VET114 VET223 antibody variant (anti-CD52) (antibody)
light: B6 light with T100G, K103H, E105T, L106V, K107L
heavy: B6 heavy with K3Q, L5V, G10D, Q13K, M18L, V115T, M116L
notes: as for B7

- Binding (%) [3]: 74.2%
B9: murine anti-canine lymphoma monoclonal antibody mab 231 (ATCC HB-9401) (antibody, V domains shown)
VH: EVKLVESGGGLVQPGGSLKLSCATSGFTFSDYYMYWVRQTPEKRLEWVAYISNGGGSTYYPDTVKGRFTISRDNAKNTLYLQMSRLKSEDTAMYYCARHGGYYAMDYWGQGTSVTVSS
VL: DIQMNQSPSSLSASLGDTITITCHASQNINVWLSWYQQKPGNIPKLLIYKASNLHTGVPSRFSGSGSGTGFTLTISSLQPEDIATYYCQQGQSYPLTFGGGTKLEIK

The remaining lines, values behind:

B1: VET106 VET217 anti-canine lymphoma antibody variant (mab 231 variable domains, canine lambda constant) (antibody)
light: B3 light with H103K, T105E, V106I, L107K
heavy: B3 heavy with S113L
- Binding (%) [1]: 30.3%

B2: VET107 VET217 anti-canine lymphoma antibody variant (mab 231 variable domains, canine kappa constant) (antibody)
light: DIQMNQSPSSLSASLGDTITITCHASQNINVWLSWYQQKPGNIPKLLIYKASNLHTGVPSRFSGSGSGTGFTLTISSLQPEDIATYYCQQGQSYPLTFGGGTKLEIKNDAQPAVYLFQPSPDQLHTGSASVVCLLNSFYPKDINVKWKVDGVIQDTGIQESVTEQDKDSTYSLSSTLTMSSTEYLSHELYSCEITHKSLPSTLIKSFQRSECQRVD
heavy: B3 heavy with S113L
- Binding (%) [1]: 20.8%

B4: VET114 VET224 antibody variant (anti-CD52, canine FR4 in both chains) (antibody)
light: B6 light with T100G, K103H, E105T, L106V, K107L
heavy: B6 heavy with V115T, M116L
notes: as for B7
- Binding (%) [2]: 47.8%

B5: VET112 VET223 antibody variant (anti-CD52, canine FR1 and FR4 in both chains) (antibody)
light: B7 light
heavy: B6 heavy with K3Q, L5V, G10D, Q13K, M18L, V115T, M116L
notes: as for B7
- Binding (%) [2]: 24.4%
